In PMC6921899, “AtDAT1 Is a Key Enzyme of D-Amino Acid Stimulated Ethylene Production in Arabidopsis thaliana” (Frontiers in Plant Science, 2019):

Substrate: CSCC[C@@H](N)C(=O)O
Assay: D-Ala formation by UPLC-MS after derivatization; Hofstee linearization
Format: biochemical, Arabidopsis thaliana
Conditions: pyruvate 50 mM as amino acceptor, standard assay: potassium phosphate 100 mM pH 8, PLP 50 µM, 37 °C

B1: AtDAT1(Col-0) (Arabidopsis thaliana) (protein)
chain: MAGLSLEFTVNTWNLRSLSQVPCPLRHGFRFPRRLTRRRTILMCSDSSSQSWNVPVLSSYEVGERLKLARGGQQFLAMYSSVVDGITTDPAAMVLPLDDHMVHRGHGVFDTALIINGYLYELDQHLDRILRSASMAKIPLPFDRETIKRILIQTVSVSGCRDGSLRYWLSAGPGDFLLSPSQCLKPTLYAIVIKTNFAINPIGVKVVTSSIPIKPPEFATVKSVNYLPNVLSQMEAEAKGAYAGIWVCKDGFIAEGPNMNVAFVVNGGKELVMPRFDNVLSGCTAKRTLTLAEQLVSKGILKTVKVMDVTVEDGKKADEMMLIGSGIPIRPVIQWDEEFIGEGKEGPIAKALLDLLLEDMRSGPPSVRVLVPY
notes: N-terminal GST tag and C-terminal His tag (pGEX-2TM-GW); E. coli BL21(DE3) RIL; Ni-NTA purified
Km: 17.4 mM
